The results in this text go back to PMC10922771.

pKd: −log10 of the molar value.

What all share (test): FXase
Experiment [1] addresses activated human factor IX (hFIXa) (human) (UniProt P00740).
Experiment [2] addresses activated ET9 (ET9a; FIX-403 with p.Arg384Leu) (human) (UniProt P00740).
Experiment [3] addresses activated human factor IX Padua (hFIXa-Padua, p.Arg384Leu) (human) (UniProt P00740).
For experiment [4], the target named is activated FIX-403 (FIXa-403) (human) (UniProt P00740).

In the case of “activated factor VIII (FVIIIa), from Advate, recombinant full-length FVIII activated with thrombin (complex)”, the pKd in experiment [1] was 8.11; in experiment [2], 9.59; in experiment [3], 8.97; in experiment [4] it was 8.68.

As usually defined, the pKd is the negative decadic logarithm of the Kd, by convention in mol/L. Higher therefore signals a small Kd.
